Assay results reported in paper PMC4551533, “Selection of DNA aptamers for ovarian cancer biomarker HE4 using CE-SELEX and high-throughput sequencing”.

Experiments:
HE4-GST (human) = target: T1, HE4-GST (human) (UniProt Q14508); assay: fluorescence anisotropy; details: TGK: 25 mM Tris, 192 mM glycine, 5 mM KH2PO4, pH 8.3, 25 C, no divalent cations; APCE 10 nM DNA, 1 mg/mL BSA; anisotropy 0.1 mg/mL BSA, HE4-GST 0-750 nM
T1 sequence: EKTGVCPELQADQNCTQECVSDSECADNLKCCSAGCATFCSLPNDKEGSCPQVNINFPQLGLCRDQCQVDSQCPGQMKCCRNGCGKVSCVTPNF

HE4-GST [1] = target: T2, HE4-GST (human, UniProt Q14508 31-124); assay: affinity probe capillary electrophoresis; TGK: 25 mM Tris, 192 mM glycine, 5 mM KH2PO4, pH 8.3, 25 C, no divalent cations; APCE 10 nM DNA, 1 mg/mL BSA; anisotropy 0.1 mg/mL BSA, HE4-GST 0-750 nM; details: protein: commercial; tags: GST; label: 5' FAM (APCE); 5' TEX615 (anisotropy)
T2 sequence: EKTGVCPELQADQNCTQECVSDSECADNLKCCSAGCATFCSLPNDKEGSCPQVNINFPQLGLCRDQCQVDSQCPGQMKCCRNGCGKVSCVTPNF

HE4-GST [2] = target: T2, HE4-GST; assay: fluorescence anisotropy; TGK: 25 mM Tris, 192 mM glycine, 5 mM KH2PO4, pH 8.3, 25 C, no divalent cations; APCE 10 nM DNA, 1 mg/mL BSA; anisotropy 0.1 mg/mL BSA, HE4-GST 0-750 nM; details: protein: commercial; tags: GST; label: 5' FAM (APCE); 5' TEX615 (anisotropy)
HE4-GST [3] = target: T2, HE4-GST; assay: affinity probe capillary electrophoresis; discrepant with anisotropy; TGK: 25 mM Tris, 192 mM glycine, 5 mM KH2PO4, pH 8.3, 25 C, no divalent cations; APCE 10 nM DNA, 1 mg/mL BSA; anisotropy 0.1 mg/mL BSA, HE4-GST 0-750 nM; details: protein: commercial; tags: GST; label: 5' FAM (APCE); 5' TEX615 (anisotropy)

| Molecule | Kd (HE4-GST (human)) [µM] | Kd (HE4-GST [1]) [nM] | Kd (HE4-GST [2]) [nM] | Kd (HE4-GST [3]) [nM] |
| --- | --- | --- | --- | --- |
| ATGGTCGCAAGAACTGAGAATTTAC [D3] | 26 |  |  |  |
| CAGTGCGTGCTTATTGGCGTAGCGTC (ssDNA) [B10] |  | 870 | 280 |  |
| CCGTCTTCTGCTTGAAAAAAAAAAA (ssDNA) [L1] |  |  |  | 300 |
| CACAGTGCGTCACATTTAGGGCATT (ssDNA) [A3] |  | 500 | 9100 |  |
| TTATCGTACGACAGTCATCCTACAC (ssDNA) [A1] |  | 390 | 2200 |  |
